{
  "source": "paper PMC4143955",
  "molecular_target": "SCMV-BJ VPg-YFP^N (BiFC fusion, pUC-SPYNE) (Sugarcane mosaic virus, Beijing isolate (SCMV-BJ))",
  "experiment": "split reporter (BiFC, NanoBiT); BiFC: YFP^N and YFP^C fusions co-transfected into maize protoplasts; YFP fluorescence captured at 12-18 h post transfection by confocal microscopy",
  "data": [
    {"substance": "YFP^C-ZmElc (BiFC fusion, pGD-YFP^C-ZmELC) (natural protein)", "values": [
      {"measurement": "percentage of protoplasts exhibiting fluorescence signal", "result": 64, "unit": "%"}
    ]}
  ]
}
